Four molecules from publication PMC3068626, “Cholesterol utilization in mycobacteria is controlled by two TetR-type transcriptional regulators: kstR and kstR2” can be followed below.

The target of data set [1] is T1, KstR2Mtb (Mycobacterium tuberculosis, UniProt P9WMB9 1-200). Briefly: EMSA; 20 mM Tris/HCl pH 8.0, 10 mM MgCl2, 75 mM NaCl, 20 min at 37 C; […]. Particulars: protein: recombinant; tags: none in EMSA (His6 tag removed with TEV protease); chain copies: 2; label: 3' DIG-11-ddUTP (end-labelled). For orientation: A gel shift assay detects complexes by their altered migration in electrophoresis.

The target of data set [2] is T1, KstR2Mtb. Description: EMSA; 1 uM DNA, 6 uM protein, 10 mM MgCl2; 20 mM Tris/HCl pH 8.0, 10 mM MgCl2, 75 mM NaCl, 20 min at 37 C; […]. Conditions: protein: recombinant; tags: none in EMSA (His6 tag removed with TEV protease); chain copies: 2; label: none (ethidium bromide stain); blunt.

T1 sequence (P9WMB9 whole entry): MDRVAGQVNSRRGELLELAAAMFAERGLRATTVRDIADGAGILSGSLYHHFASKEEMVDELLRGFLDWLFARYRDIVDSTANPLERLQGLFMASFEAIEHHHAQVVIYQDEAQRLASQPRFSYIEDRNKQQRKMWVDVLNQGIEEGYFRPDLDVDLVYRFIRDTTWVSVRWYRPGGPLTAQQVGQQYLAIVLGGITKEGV

B1: Rv3557c/Rv3558 probe, DIG-labelled (dsDNA)
DNA 1: GCTGGCCGAGCAAGCGCTTGGTTGATAGTC
DNA 2: GACTATCAACCAAGCGCTTGCTCGGCCAGC
For B1, in data set [1], the binding result is given as “binds”.

B2: Rv3557c/Rv3558 probe (dsDNA)
DNA 1: GCTGGCCGAGCAAGCGCTTGGTTGATAGTC
DNA 2: GACTATCAACCAAGCGCTTGCTCGGCCAGC
For the molecule B2, the binding result in data set [2] is “binds”.

B3: Rv3549c/Rv3550 probe (dsDNA)
DNA 1: GCGTACCAAGCAAGTGCTTGCTTAGGTAGC
DNA 2: GCTACCTAAGCAAGCACTTGCTTGGTACGC
For the molecule B3, the binding result in data set [2] was “binds”.

B4: Rv3560c/Rv3561 probe (dsDNA)
DNA 1: GCTAACCTACCAAGCACTTGCTTTGTTAGG
DNA 2: CCTAACAAAGCAAGTGCTTGGTAGGTTAGC
B4: the binding result in data set [2] is given as “binds”.
